Measured values from publication PMC7465815, “The CARF Protein MM_0565 Affects Transcription of the Casposon-Encoded cas1-solo Gene in Methanosarcina mazei Gö1” (Biomolecules, 2020).

Experiments:
[1] = molecular target: T1, His6-MM_0565 (CARF-wHTH protein) (Methanosarcina mazei Gö1) (UniProt Q8PZC9); experiment: EMSA; conditions: MST: 25 nM labelled protein in His-tag buffer (250 mM NaH2PO4, 1.5 M NaCl, pH 8) + 1 mg/mL BSA, 0.05% Tween20, DNA from annealing buffer (50 mM TES/KOH pH 7.6 …)
T1 sequence: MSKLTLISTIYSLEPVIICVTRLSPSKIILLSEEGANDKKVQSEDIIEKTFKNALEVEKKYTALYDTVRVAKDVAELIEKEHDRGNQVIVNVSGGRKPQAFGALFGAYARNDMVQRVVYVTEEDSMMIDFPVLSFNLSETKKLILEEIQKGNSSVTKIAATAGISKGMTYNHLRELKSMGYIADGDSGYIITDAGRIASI

[2] = molecular target: T1, His6-MM_0565 (CARF-wHTH protein) (Methanosarcina mazei Gö1); experiment: competition; conditions: MST: 25 nM labelled protein in His-tag buffer (250 mM NaH2PO4, 1.5 M NaCl, pH 8) + 1 mg/mL BSA, 0.05% Tween20, DNA from annealing buffer (50 mM TES/KOH pH 7.6 …)
[3] = molecular target: the molecule itself; experiment: SEC; purified His6-MM_0565 on an ENrich SEC 650 column; 50 mM TES buffer pH 7.6, 300 mM KCl; 0.5 mL/min; calibrated with a gel-filtration mass standard
[4] = molecular target: the molecule itself; experiment: SDS-PAGE and Western blot of cell extracts (dimer band kept under denaturing conditions); M. mazei cell extracts (750 µg), cells grown under standard conditions (38.5 mM NaCl) or with 500 mM NaCl; samples boiled 5 min at 95 °C, 12% SDS-PAGE; polyclonal antibodies against MM_0565
[5] = molecular target: T2, His6-MM_0565 (CARF-wHTH protein) (Methanosarcina mazei Gö1, UniProt Q8PZC9 1-200); experiment: MST; MST: 25 nM labelled protein in His-tag buffer (250 mM NaH2PO4, 1.5 M NaCl, pH 8) + 1 mg/mL BSA, 0.05% Tween20, DNA from annealing buffer (50 mM TES/KOH pH 7.6); conditions: protein: recombinant, tags: N-terminal His6 (pET28a), chain copies: 2
T2 sequence: T1 sequence

Molecule: AGGGCAAAAATTTCCGTTATTTGGTCAGAAAAGGCCTGAAATGAGCCCTTTTTTGGGGCTAAAATTCTTGCTGGAAAATTATCAAACCCTTTATAAATACAAGAAAAAAAGGGTTTTTTTAGTGGTTTGGAAAC (double strand) [leader III-C PCR fragment]
- binding [1]: binds

Molecule: AGGGCAAAAATTTCCGTTATTTGGCCAGAAAAGGCCTGAAATGAGCCCTTTTTCAGGGCTAAAATTCTTGCTGGAAAATTATCAAACCCTTTATAAATACAAGAAAAACTTCTCATACGCAGATATTCCGGTAACAGCAATCTACGCATTTTCT (double strand) [leader I-B PCR fragment]
- binding [1]: binds
- binding [2]: binds

B1: His6-MM_0565 (CARF protein MM_0565 of Methanosarcina mazei Gö1 with N-terminal His6 tag) (natural protein, UniProt Q8PZC9 1-200, looked up)
chain: T1 sequence
notes: MM_0565 gene product of Methanosarcina mazei Gö1; N-terminal CARF domain and C-terminal winged helix-turn-helix domain; gene PCR-amplified (0.6 kbp fragment) and cloned into pET28a(+); approximately 22 kDa; Homodimer by size-exclusion chromatography; also called purified MM_0565; His6-tagged MM_0565; source: E. coli BL21-CodonPlus-RIL (plasmid pRS923, pET28a), purified (Ni-NTA agarose); not …
- stoichiometry N [3]: 2

B2: MM_0565, endogenous in Methanosarcina mazei Gö1 (natural protein, UniProt Q8PZC9 1-200, looked up)
chain: T1 sequence
notes: MM_0565 gene product of Methanosarcina mazei Gö1, detected in cell extracts with polyclonal antibodies against MM_0565 as bands of 25 and 50 kDa; Both a monomer band and a dimer band were seen on the denaturing gel; also called dimeric MM_0565; source: endogenous, M. mazei Gö1 cell extracts
- stoichiometry N [4]: 2

B3: MM_0565 promoter version 1 (wt) (dsDNA)
DNA 1: AACTAAATCCCTATATCGTAAAACATTTAACCAAACCCTACAATACATGACATCTAATGT
DNA 2: ACATTAGATGTCATGTATTGTAGGGTTTGGTTAAATGTTTTACGATATAGGGATTTAGTT
- Kd ([5]; blunt): 285 ± 56 nM

B4: MM_3250 (cas1-solo operon) promoter (dsDNA)
DNA 1: CCGCTCTTACTTATGTACAGAATTGAGTATAACTTTAAGTATAAGTTTGATGTATATTTTGTATATAATT
DNA 2: AATTATATACAAAATATACATCAAACTTATACTTAAAGTTATACTCAATTCTGTACATAAGTAAGAGCGG
- Kd ([5]; blunt): 1600 ± 400 nM

B5: conserved leader region 1 (5' fragment, 70 nt) (dsDNA)
DNA 1: TTTTTCTTGTATTTATAAAGGGTTTGATAATTTTCCAGCAAGAATTTTAGCCCCAAAAAAGGGCTCATTT
DNA 2: AAATGAGCCCTTTTTTGGGGCTAAAATTCTTGCTGGAAAATTATCAAACCCTTTATAAATACAAGAAAAA
- Kd ([5]; blunt): 960 ± 350 nM

B6: cas8b promoter (CRISPR-Cas I-B operon) (dsDNA)
DNA 1: TCTATTTGCTTATTTTTATAATTATTTTTAGAAATGTATATATAATATGTTAACTATGAACCTTGATGGT
DNA 2: ACCATCAAGGTTCATAGTTAACATATTATATATACATTTCTAAAAATAATTATAAAAATAAGCAAATAGA
- binding result ([5]; blunt): no binding

B7: conserved leader region 2 (3' fragment) (dsDNA)
DNA 1: CAAGAATTTTAGCCCTGAAAAAGGGCTCATTTCAGGCCTTTTCTGGCCAAATAACGGAAATTTTTGCCCT
DNA 2: AGGGCAAAAATTTCCGTTATTTGGCCAGAAAAGGCCTGAAATGAGCCCTTTTTCAGGGCTAAAATTCTTG
- binding result [5]: no binding
